Columns and labels:
[1] = molecular target: T1, Mut4 heterozygous LIF protein (human LIF with residues 166-202 of …, UniProt P15018 23-201, limits assumed); assay: western blot of 293T culture supernatants, primary antibody 38E10E1C11, HRP goat anti-mouse Fab
T1 construct: Secreted into the supernatant of transfected 293T cells; also called Mut4 protein

[2] = molecular target: T2, Mut3 heterozygous LIF protein (human LIF with residues 182-202 of …, UniProt P15018 23-201, limits assumed); assay: as above
T2 construct: Secreted into the supernatant of transfected 293T cells; also called Mut3 protein

[3] = molecular target: T3, human LIF protein (human, UniProt P15018 23-202); assay: competition ELISA: human LIF coated at 1 µg/mL, LIFR-Fc 0.6125 µg/mL added together with the antibody, A450
T3 construct: Bought recombinant protein (Sino Biological / Yiqiao Shenzhou 14890-HNAH) in most assays; also called recombinant human LIF protein; rhLIF
Method: (§1) The recombinant human LIF protein was coated on the enzyme label plate at a concentration of 1 μg/mL, LIFR protein (expressed fusedly with human FC) at a concentration of 0.6125 μg/mL was added (50 μL/well), and the anti-human LIF antibodies 38E10E1C11, P36-033 and 38E10E1C11R which is recombinantly expressed by CHO cells (SEQ ID NOs: 41 and 43) at different concentrations simultaneously were added separately (50 μL/well) and incubated for 2 h at room temperature. After washed four times with PBST, incubated with HRP-labeled goat anti-mouse FC secondary antibody for 1 h at room temperature. Then the plates were washed four times with PBST and added with TMB coloured solution in for 10 minutes. The absorption value at 450 nm is quantitated using an enzyme-labelling measuring instrument, and the data was analyzed and plotted using Origin pro 9 software.

[4] = molecular target: T3, human LIF protein; assay: ELISA, human LIF coated at 1 µg/mL, A450
Method: The recombinant human LIF protein was diluted to 1 μg/mL, was coated on the enzyme label plate, 100 μL of the protein was added into every well, and incubated overnight in 4° C. The enzyme label plates were taken out next day, and the liquid was discarded, and were washed with PBST three times and blocked with 2% BSA in PBS for 1 h at room temperature, then washed with PBST three times, and added anti-human LIF antibodies 38E10E1C11, 5D8 and P36-033 at different concentrations and incubated for 1 h at room temperature. The liquid was discarded, and the plates were washed with PBST four times. The plates were added with HRP-labeled goat anti-mouse Fab antibody or goat anti-human FC antibody and incubated for 1 h at room temperature. Then the liquid was discarded, and the plates were washed four times with PBST and incubated with TMB colored solution in 10 minutes at room temperature. Stop color development by adding 2 mol/L H₂SO₄, and the absorption value at 450 nm is quantitated using an automated plate photometer, and the results were shown in FIG. 1.

[5] = molecular target: T3, human LIF protein; assay: competition ELISA: human LIF coated at 1 µg/mL, LIFR-Fc 0.6125 µg/mL added together with the antibody, A450; remark: listed apart in the source
Method: as §1

[6] = molecular target: T3, human LIF protein; assay: competition ELISA: human LIF coated at 1 µg/mL, GP130-Fc 20 µg/mL added together with the antibody, A450
Method: The recombinant human LIF protein was coated on the enzyme label plates at a concentration of 1 μg/mL, GP130 protein (expressed fusedly with human FC) at a concentration of 20 μg/mL was added (50 μL/well), and the anti-human LIF antibodies P36-033 and 38E10E1C11 at different concentrations simultaneously were added separately (50 μL/well), and incubated for 2 h at room temperature. At the same time, the control wells added with antibodies and without GP130 protein were set. Incubated for 2 h at room temperature. After washed four times with PBST, incubated with HRP-labeled goat anti-mouse FC secondary antibody for 1 h at room temperature. Then the plates were washed four times with PBST and added with TMB coloured solution in for 10 minutes. The absorption value at 450 nm is quantitated using an enzyme-labelling measuring instrument, and the data was analyzed and plotted using Origin pro 9 software.

B1: 38E10E1C11 antibody (antibody, mouse IgG1, kappa)
heavy: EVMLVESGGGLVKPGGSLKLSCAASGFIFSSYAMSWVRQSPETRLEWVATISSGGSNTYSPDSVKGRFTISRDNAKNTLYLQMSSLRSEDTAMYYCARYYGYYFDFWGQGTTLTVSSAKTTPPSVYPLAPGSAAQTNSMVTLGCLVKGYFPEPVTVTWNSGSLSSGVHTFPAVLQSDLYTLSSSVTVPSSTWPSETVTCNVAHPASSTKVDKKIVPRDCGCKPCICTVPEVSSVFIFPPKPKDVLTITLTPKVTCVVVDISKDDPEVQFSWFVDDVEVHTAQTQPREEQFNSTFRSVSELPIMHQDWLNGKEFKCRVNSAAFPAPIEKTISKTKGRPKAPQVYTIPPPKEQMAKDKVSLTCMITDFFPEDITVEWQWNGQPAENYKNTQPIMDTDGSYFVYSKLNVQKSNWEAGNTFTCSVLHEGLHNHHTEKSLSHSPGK
light: DIHMTQSPASLSASVGETVTITCRASENIYSYLAWYQQKQGKSPQLLVYNAKTLAEGVPSRFSGSGSGTQFSLKINSLQPEDFGSYYCQHHYVTPLTFGAGTKLELKRADAAPTVSIFPPSSEQLTSGGASVVCFLNNFYPKDINVKWKIDGSERQNGVLNSWTDQDSKDSTYSMSSTLTLTKDEYERHNSYTCEATHKTSTSPIVKSFNRNEC
notes: Mouse IgG1, kappa light chain; also called 38E10E1C11 mAb; mAb38E10E1C11
binding result [1]: no binding
binding result [2]: binds
IC50 (read off the curve) [3]: ~0.3 µg/mL
EC50 (read off the curve) [4]: ~0.05 µg/mL
IC50 (read off the curve) [5]: ~0.1 µg/mL
IC50 (read off the curve) [6]: ~0.6 µg/mL
